Data: the nanobody polyreactivity screen of Harvey et al. (2022)

Assay: yeast display, Sf9 membrane polyspecificity reagent, FACS + sequencing; frameworks hold sequencing errors
Summary of the method: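 Sorting gates, low and high (top ~1%), were placed on anti-HA fluorescence to track expression and on streptavidin fluorescence to track reagent binding. A clone's polyreactivity label is taken from the gate it came out of. The reagent was 10% biotinylated, detergent-solubilized Sf9 membrane, applied for 1 hour at 4 °C to galactose-induced yeast display cells.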

Sequence	polyreactivity (PSR sort gate)
QVQLVESGGCLVQAGGSLRLSCAASGFIFRYNAMGWYRQAPGKERELVAAISWSGTTYYADSVKGRFTISRDNAKNTVYLQMNSLKPEDTAVFYCAAGRLFYGYRDFDYWGQGTQVTVSS	low polyreactivity
QVQLVESGGCLVQAGGSLRLSCAASGFTFSDNSMGWYRQAHGKERELVATISQSSGSTSYADSLKGRFTISRDNAKNTVYLQMNSLKPEDTAVYYCAKRRLFYWGLGTQVTVSS	low polyreactivity
QVQLVESGGCLVQAGGSLRLSCAASGFTFTTYAMGWYRQAPGKEREFVAALTKRGGRTYYADSVKGRFTISRDNAKITVYLQMNSLKPEDTAVYYCNKVVHSFPFPYRYDMDYWGQGTQVTVSS	high polyreactivity
QVQLVESGGCLVQAGGSLRLSCAASGFTFVRNAMGWYRQAPGKDRELVAAISGSGGRTYYADSVKGRFTISRDNAKNTVYLQMNSVKPEDTAVYYCNTASAYEYEYWGQGSQVTVSS	high polyreactivity
QVQLVESGGCLVQAGGSLRLSCAASGFTLTGNAMGWYRQAPGKERELVADISNSGGTTNYADSVKGRFTISRDNAKNTVYLQMNSLKPDDSAVYYCAADVSYRNIGLEYWGQGTQVTVSS	high polyreactivity
QVQLVESGGCLVQAGGSLRLSCAASGGIFGKYAMGWYRQAPGKESELVAAITWNGVSTYYADSVKGRFTISRDNAKNTVYLQMNSLKPEDTAVYYCAKASLPYRPDSTPDRRYDYWGQGTQVTVSS	high polyreactivity
QVQLVESGGCLVQAGGSLRLSCAASGGIFSYNAMGWYRQAPGKERELVAAISYSGGNTYYADSVKGRFTISRDNAKNTVYLQMNSLKPEDTAVYYCAATGYYNWYTSGYWGQGTQVTVSS	high polyreactivity
QVQLVESGGCLVQAGGSLRLSCAASGHIFTFYAMGWYRQAPGKERELVATIRWSGGSTYYADSVKGRFTISRDNAKNTVYLQMNSLKPEDTAVYYCAATYYPSSYVQRLDYWGQGTQVTVSS	low polyreactivity
QVQLVESGGCLVQAGGSLRLSCAASGIIFQQYAMGWYRQAPGKARELVAAITYSGDGTYYADSVKGRFTISRDNAKNTVYLQMNSLKPEDTAVYDCAAYPRDPYKEYDYWGQGTQVTVSS	low polyreactivity
QVQLVESGGCLVQAGGSLRLSCAASGIIFTYYAMGWSRQAPGKESELVARISSSGGRTYYADSVKGRVTISRDNGKNTVYLQMNSLNPEDTAVYYCAAAIVSYGRNDYWGQGTQVTVSS	high polyreactivity
QVQLVESGGCLVQAGGSLRLSCAASGITFRRYTMGWYRQAPGKERELVATISLSDGNTYYADSVKGRFTISRDNAKNSVYLQMNSLKPEDTAVYYCNADSTTQVYDYWGQGTQVTVSS	low polyreactivity
QVQLVESGGCLVQAGGSLRLSCAASGLIFRKYARGWSRQAPGKERELVAAISVSGGSTYYADSVKGRFTISRDNAKNTVYLQMNSLKPEDTAVYYCAATDFGRRGGSFYYWGQGTQVTVSS	high polyreactivity
QVQLVESGGCLVQAGGSLRLSCAASGLNFSKNVKGWYIQAPGKERELVAAISQRGGSTYYADSVKGRFTISRDYAKNTVYLQMNSLKPEDTAVYYCAADTTVSHEDYWGQGTQVTVSS	low polyreactivity
QVQLVESGGCLVQAGGSLRLSCAASGLTIFVNAMGWYRQAPGKERELVATISGGGSTYYADSVKGRFTISRDNAKNTVYLQMNSLKPEDTAVYYCNGGGYGLRGDYWGQGTQVTVSS	low polyreactivity
QVQLVESGGCLVQAGGSLRLSCAASGRIFVTYAMGWYRQAPGNERELVAAITSRGGRTYYADSVKGRFTISRDYAKNTVYLQMNSLKPEDTAVYYCAASPGPGARYYYWCQGTQVTVSS	high polyreactivity
QVQLVESGGCLVQAGGSLRLSCAASGRIIDFYTLGWYRQAPGKERELVAGINGSGASTYYADSVKGRFTISRDNAKNTVYLQMNSLKPEDTAVYYCAKDPGYYYDYDYWGQGTQVTVSS	low polyreactivity
QVQLVESGGCLVQAGGSLRLSCAASGRISGFNAMGWYRQAPGKERELVAANSYRGGSTYADSVKGRFTISRVNAKNTVYLQMNSLKPEDTAVYYCAAQSYWTFHTYYYWGQGTQVTVSS	low polyreactivity
QVQLVESGGCLVQAGGSLRLSCAASGRNIAYNAMGWSRQAPGKERELVASISSGGSTFYADSVKGRFTISRDNAKNTVYLQMNSLKPEDTAVYYCAKGGYWGQGTQVSVSS	high polyreactivity
QVQLVESGGCLVQAGGSLRLSCAASGRTFRRYAMGWYRQAPGKERELVASITWRGGRTYYADSVKGRFTISRDNAKNTVYLQMNSLKPEDTAVYYCAAEDYQLPGYRRTHVEKMDYWGQGTQVTVSS	low polyreactivity
QVQLVESGGCLVQAGGSLRLSCAASGRTFSPNAMGWYRQAPGKERELVAAISWISGGRTYYADSVKGRFTISRDNAKNTVYLQMNSLKPEDTAVYYCAAEYYYTYGYWGQGTQVTVSS	high polyreactivity
QVQLVESGGCLVQAGGSLRLSCAASGRTFYTNGMGWYRQAPGKEREFVAGITYRGGGTYYADSVKGRFTISRDNAQNTVYLQMNSLKPEDTAVYYCAARYYRDYRWYTYAYDYWGQGTQVTVSS	high polyreactivity
QVQLVESGGCLVQAGGSLRLSCAASGRTLDFNVLGWYRPAPGQERELVAAITWSGGSTYYADSVKGRFTISRDNAQNTVYLQMNSLKQEDTAGYYCAAKALYAYRLYDYSGQGTQVTVSS	high polyreactivity

Sequence	polyreactivity (PSR sort gate)
QVQLVESGGCLVQAGGSLRLSCAASGRTSTGYSMGWYRQAPGKERELVAGIDKIGGRTYYADSVKGRFTISRDNAKNTVYLQMNSLKPEDTAVYYCAVKTSPRRYYWGQGTQVTVSS	high polyreactivity
QVQLVESGGCLVQAGGSLRLSCAASGSIFGAYVMGWYRQAPGKERELVAAITRRGGSTYYADSVKGRFTISRDNAKNTVYLQMNSLKPEDTAVYYCAARRGAGDGYWGQGTQVTVSS	high polyreactivity
QVQLVESGGCLVQAGGSLRLSCAASGSIFGENAMGWYRQAPGKERELVAAITSGGSTDYADSVKGRFTISRDNAKNTVYLQMNSLKTEDTAVYYCAASGRVGPGYWYDSWGQGTQVTVSS	low polyreactivity
QVQLVESGGCLVQAGGSLRLSCAASGSIFGVNAMGGYRQPPGKDRELVASITGGDSTNYADSVKGRFTISRDNAKNTVYLQMNSLKPEDTAVYYCAKDHYYRYEEGDYWGLGTQVTVSS	low polyreactivity
QVQLVESGGCLVQAGGSLRLSCAASGSIFLSNAMGWYRQAPGKERELVATIDDNGGSTYYADSVKGRFTISRDNAKNTVYLQMNSLKPEDTAVYYCAKQVRVWDLYYYLEEGYWGQGTQVTVSS	low polyreactivity
QVQLVESGGCLVQAGGSLRLSCAASGSIFLTYAMGWYIQAPGKERELVASSTGGGSTNYADSVKGRFTSSRDNAKNTVYLQRNSLKPEDTAVYYCAKKAIVSDQWDKYDYWGQGTQVTVSS	low polyreactivity
QVQLVESGGCLVQAGGSLRLSCAASGSIFRYYNMGWYRQAPGKERELVAVINWSGGSTYYADSVKWRFTISRDNAKNTVYLQMNSLKPEDCAVYYCAICFWRTRRYGADPRTKYDYWGLGTQVTVSS	high polyreactivity
QVQLVESGGCLVQAGGSLRLSCAASGSIFSWYGMSWYRQAPGKERELVAAITWGGGSTYYADSVKGRFTISRDNAKNSVYLQMNSLKPEDTAVYYCEVDYWGQCTQVTVSS	low polyreactivity
QVQLVESGGCLVQAGGSLRLSCAASGSIRSYAMGWYRQAPGKERELVAAITRSGGSTYYADSVKGRFTISRDNAKNTVYLPMKSLKPEDTAVYYCAARYTYSYPLFGSWGQGTQVTVSS	high polyreactivity
QVQLVESGGCLVQAGGSLRLSCAASGSSFTSNSMGWSRHAPGKERELVAAISSCGGSTYYADSVKGRFTISRDNATQTVYIQMNSLKPEDTAVYYCAADVHWPYRYDYWGQGTQVTVSS	low polyreactivity
QVQLVESGGCLVQAGGSLRLSCAASGSTFGLYAKGLYRQAPGTEREFVAAITSTGGSTYFADSVKGRFTISRDNAQNTVYLQLNSLKPEDTAVYDSYADFFVWRYPHYLIFGYWGQGTQVTVSS	low polyreactivity
QVQLVESGGCLVQAGGSLRLSCAASGSTFGYNTMGWYRQAPGKERELDAAITGTGRTNYADSVKGRFTISRDNAKNNVYLQMYSLKPEDTAVYYCNARQAGTRYKYGYYGRYYWGHGTQVTVSS	high polyreactivity
QVQLVESGGCLVQAGGSLRLSCAASGSTFNWNAMGWYRQAPGKERELVAAITSSGARTRYADSVKGRFTISRDNAKNTVYLQMNSLKPEDTAVYYCAAYVYISPSGYYYWGLGTQVTVSS	low polyreactivity
QVQLVESGGCLVQAGGSLRLSCAASGSTFRFYAMGWYRQAPGKERELVATISSSGGTTYYADSVKGRFTISRDNAKNTVYLQMNSLKPEDTAVSYCAKDAFGWGRVYYYRSGYWGHGTQVTVSS	high polyreactivity
QVQLVESGGCLVQAGGSLRLSCAASGSTFRYYAMGWYRQAPGKESELVARITSRAGRTYYADSVKGRFTISRDIAKNTVYLQMNSLKPEDTAVYFCNTRDFSGYVHALSLYDYWGQGTQVTVSS	high polyreactivity
QVQLVESGGCLVQAGGSLRLSCAASGSTFVYNTMGWYRQAPGKERELVASISSDGNTYYADSVKGRFTISRDNAKNTVYLQMNSLKPEDTAVYYCAARYYYDWRFVGYDYWGQGTQVTVSS	low polyreactivity
QVQLVESGGCLVQAGGSLRLSCAASGYIFQWYDMGWYRPAPGKERELVAAISVTTGSTYYADSVKGRFTISRDNAQKTVYLQMNSLKPEDTAVYYCAAVSWYRHDMYYWGHGTQVTVSS	low polyreactivity
QVQLVESGGCLVQAGGSLRLSCAASRRIYYYTMGWYRQPPGKERELGATITSSGSSTYYADSVKGRFTISRDNAMNTVYLQMNSLKPEDTAVYYCAAGDRRYQRRYYYWGQGTQVTVSS	high polyreactivity
QVQLVESGGCLVQAGGSLRLSCAGSGSIFDGYAMGWYRQAPGKERELVADINNGADTYYADSVKGRFTISRDKAKNTVYLQMNTLKTEDTAVYYCAARYGTDTDIQNVARYDYWGQGTQVTVSS	low polyreactivity
QVQLVESGGCLVQAGGSLRLSCASSGITFFEYAMGCYRQAPGKERELVAVITSGGSTNYADSVKGRFTISRDNAKNTVYLQMNSLKPEDTAVYYCNARVVKYRWWYDYYYWGQGTQVTVSS	low polyreactivity
QVQLVESGGCLVQAGGSLRLSCDASGSIFYRNVIGWYRQAPGKERELVATISRGGTTNYADSVKGRFTISRDNAKNTVYLQMNSLKPEDTAVYYCAADASSKLYDYWGQGTQVTVSS	low polyreactivity
